US20200199209A1 (JIANGSU HENGRUI MEDICINE, published 2020)

What was measured:
human sclerostin (SOST) [1] = target: T1, human sclerostin (SOST) (human, UniProt Q9BQB4 24-213); assay: ELISA binding to human sclerostin (Test Example 1)
T1 construct: also called human SOST; h-SOST
T1 sequence (looked up): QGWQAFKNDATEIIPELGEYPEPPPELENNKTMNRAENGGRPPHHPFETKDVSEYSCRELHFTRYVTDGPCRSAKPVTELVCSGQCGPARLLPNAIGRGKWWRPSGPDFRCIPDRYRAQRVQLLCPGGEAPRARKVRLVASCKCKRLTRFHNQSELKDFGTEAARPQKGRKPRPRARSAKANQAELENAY

human sclerostin (SOST) [2] = target: T1, human sclerostin (SOST); assay: blocking of human SOST binding to human LRP-6 (Test Example 2)

EC50 (human sclerostin (SOST) [1]): 0.701 nM | IC50 (human sclerostin (SOST) [2]): 9.91 nM
B1: murine anti-human SOST monoclonal antibody Ab-1 (antibody, V domains shown)
VH: EVQLQQSGPELVKPGTSVKIPCQTSGYTFTDYNLDWLKQRPGESLEWIGDIDPNNGDILYNQKFRDKATLTVDTSSNTAYLELRSLTSEDTAVYYCARRWAYYFDYWGQGTTLTISS
VL: NIVMTQTPKLLFVSAGDRITITCKASQSVSNDVAWYQQKPGQSPKLLIYYTSNRFTGVPDRFTGSGYGTDFTLTINTVQAEDLAVYFCQQDYSSPVTFGAGTKLELK
notes: Murine antibody from the hybridoma cell strain Ab-1; also called murine Ab-1
